Results published in patent US10308692B2, “Variants of GAL2 transporter and their uses” (Johann Wolfgang Goethe-Universität Frankfurt, priority 2014, dated 2019).
Changes are numbered by the printed parent chain. In names and notes the source's numbering stands.

B1: Gal2_M435I: M435I exchange introduced into wild-type Gal2 (protein, UniProt P13181 1-574, looked up, variant M435I)
Galactose transporter: MAVEENNMPVVSQQPQAGEDVISSLSKDSHLSAQSQKYSNDELKAGESGSEGSQSVPIEIPKKPMSEYVTVSLLCLCVAFGGFMFGWDTGTISGFVVQTDFLRRFGMKHKDGTHYLSNVRTGLIVAIFNIGCAFGGIILSKGGDMYGRKKGLSIVVSVYIVGIIIQIASINKWYQYFIGRIISGLGVGGIAVLCPMLISEIAPKHLRGTLVSCYQLMITAGIFLGYCTNYGTKSYSNSVQWRVPLGLCFAWSLFMIGALTLVPESPRYLCEVNKVEDAKRSIAKSNKVSPEDPAVQAELDLIMAGIEAEKLAGNASWGELFSTKTKVFQRLLMGVFVQMFQQLTGNNYFFYYGTVIFKSVGLDDSFETSIVIGVVNFASTFFSLWTVENLGHRKCLLLGAATMMACMVIYASVGVTRLYPHGKSQPSSKGAGNCIIVFTCFYIFCYATTWAPVAWVITAESFPLRVKSKCMALASASNWVWGFLIAFFTPFITSAINFYYGYVFMGCLVAMFFYVFFFVPETKGLSLEEIQELWEEGVLPWKSEGWIPSSRRGNNYDLEDLQHDDKPWYKAMLE
B2: Gal2_ep3.1: Gal2 epPCR clone with mutations M107K V239L N376Y M435I L558S (protein, UniProt P13181 1-574, looked up, variant M107K V239L N376Y M435I L558S)
Galactose transporter: B1 Galactose transporter with M107K, V239L, N376Y, L558S
B3: Gal2_ep3.3: Gal2 epPCR clone with mutations T219S M255L R267C L299S N346I E528D (protein, UniProt P13181 1-574, looked up, variant T219S M255L R267C L299S N346I E528D)
Galactose transporter: B1 Galactose transporter with T219S, M255L, R267C, L299S, N346I, I435M, E528D

How the values were obtained:
Type in all cases: cell-based, Saccharomyces cerevisiae
EBY.VW4000 = assay: Serial dilution drop test on glucose and galactose media
Procedure: The transformants were cultivated in 5 ml SCM-ura with 20 g/l maltose at 30°, washed with water and adjusted to an OD600 of 1. Thereof it followed a serial dilution. 5 μl were dropped onto the respective media and it was incubated for three days at 30°. As a control for the dilution SCM-ura with 20 g/l maltose was taken. The cells of the mutated transporters were dropped onto SCD-ura with 0.2% and 2% glucose, as well as SCG-ura with 0.2% and 2% D-galactose to test their functionality. Furthermore the wild type, Gal2_ep3.1 and Gal2_N376Y were used for comparison.
FIG. 4: Drop test of Gal2_M435I in EBY.VW4000 after three days at 30°. Several dilutions from left to right were dropped (undiluted, 1:10, 1:100, 1:1000).
(§1) For easy comparison of growth of different S. cerevisiae strains under various growth conditions a serial dilution spot assay was performed. Cells were grown in liquid culture to exponential phase in appropriate medium, collected by centrifugation (2000×g, 2 min), washed twice with sterile water and then resuspended to an OD600 of 1.0 in selective medium without carbon source. From this cell suspension a ten-fold serial dilution was prepared in selective medium (four dilution steps). 6 μl of each cell suspension were spotted on plates of the media to be examined and allowed to dry. Plates were incubated at 30° C.

AFY10 = assay: Serial dilution drop test on xylose and xylose-glucose media
Procedure: The transformants were cultivated in 5 ml SCE-ura-leu with 2% ethanol at 30°, washed with water and adjusted to an OD600 of 1. Thereof it followed a serial dilution. 5 μl were dropped onto the respective media and it was incubated for five days at 30°. As a control for the dilution SCE-ura-leu with 2% ethanol was taken. The cells of the mutated transporters were dropped onto SCX-ura-leu with 0.2% and 2% D-xylose, as well as SC-ura-leu with 1% D-xylose with 4% D-glucose and SC-ura-leu with 0.2% D-xylose and 2% D-glucose to test their functionality. Furthermore the wild type and Gal2_ep3.1 were used for comparison.
FIG. 5: Drop test of Gal2_M435I in AFY10 after five days at 30°. Several dilutions were dropped from left to right (undiluted, 1:10, 1:100, 1:1000).
FIG. 6: Drop test of Gal2_N376F, N376F+M435I and N376Y+M435I in AFY10 after five days at 30°. Several dilutions were dropped from left to right (undiluted, 1:10, 1:100, 1:1000). But on 20 g/l xylose the order was different (undiluted, 1:100, 1:1000, 1:10).
as §1
To characterize the different constructs which all were verified by sequencing they were transformed together with vector YEp181_pHXT7-optXI_Clos into competent AFY10 cells and drop tests were performed.

AFY10X = assay: epPCR-screening by replica-plating on xylose plus glucose media; settings: media with 1% xylose and increasing amounts of glucose (up to 5%)
Source text: Mutants of GAL2 were created using error-prone PCR (epPCR) and then screened in AFY10X as described in Farwick et al. (2014). This method is faster than evolutionary engineering experiments and more often generates multiple mutations per ORF that might have a unique combined effect. On the downside, there might be more silent mutations among the increased number of mutations which might aggravate the identification of the relevant mutations in each clone. The GAL2 ORF was amplified in an epPCR with short amplification primers, applying various mutation rates, and the purified fragments then again amplified for recombinational cloning in a second PCR. Functional plasmids were in vivo assembled from PCR fragments and linearized p426H7 vector directly in the screening strain AFY10X. Transformants were plated out on selective SCE2 plates and subsequently screened. Colonies were tested for improved growth on media with 1% xylose and increasing amounts of glucose (up to 5%) by replica-plating. Seven clones were selected and grown in SCE2 ura^− leu^−+G418+2-DOG and samples of these cultures streaked out on plates for comparison and to obtain single colonies. Five of these seven clones were confirmed to grow on xylose glucose media. The plasmids of two clones were successfully isolated as described (yeast DNA was digested with EcoRI) and sequenced.

[1] = drop test, FIG. 4, versus wild-type Gal2

Row | Molecule | growth on glucose (EBY.VW4000; 2 g/l and 20 g/l glucose) | uptake of galactose (EBY.VW4000; [1]) | uptake of glucose (EBY.VW4000; [1]) | growth on low xylose (AFY10; 0.2% (2 g/l) xylose) | growth on high xylose (AFY10; 2% (20 g/l) xylose, compared within the same drop test) | growth on xylose-glucose mixtures (AFY10; FIG. 5) | uptake of xylose (AFY10; drop test, FIG. 5) | growth on medium (xylose + glucose) (AFY10X)
1 | B1 | much slower | no effect | strongly reduced | No growth | slow growth | No growth | reduced | 
2 | B2 |  |  |  |  |  |  |  | 1 + 5
3 | B3 |  |  |  |  |  |  |  | 1 + 3
